Data from paper PMC12193154, “Effect of Mutations in the C-Terminal 22–24 Domains of Filamin C Associated with Cardio- and Myopathies on Its Interaction with Small Heat Shock Protein HspB7” (International Journal of Molecular Sciences, 2025).

Tests used:
[1] = target: the molecule itself; experiment: cross-linking; isolated proteins or equimolar mixture, 30 min at 30 °C in 25 mM HEPES/NaOH pH 7.4, 100 mM NaCl, 2 mM DTT, then 0.0125% glutaraldehyde 30 min at 30 °C; SDS gel and anti-HspB7 immunoblot
[2] = target: the molecule itself; experiment: SEC; isolated FLNC fragments, 0.1 mg in 100 µL, Superdex 200 10/300, 0.5 mL/min, 50 mM Na-phosphate pH 7.4, 150 mM NaCl, 0.1 mM EDTA, 0.1 mM PMSF, 2 mM DTT, room temperature; apparent molecular weights from column calibration
[3] = target: T1, small heat shock protein HspB7 (full-size) (UniProt Q9UBY9 1-170); experiment: native gel or EMSA; fixed HspB7 (25 or 30 µM) or AcdB7 (35 µM) in 20 mM Tris-acetate pH 7.6, 100 mM NaCl titrated with 0-120 µM FLNC fragment, 30 min at 30 °C; native 12.5% polyacrylamide gel, Tris-glycine pH 8.6; band intensities, semi quantitative, apparent affinity; conditions: both partners purified
T1 construct: small heat shock protein HspB7, full-size; also called full-size HspB7; full-length HspB7; source: recombinant, expressed and purified as described earlier [25,34]

[4] = target: T2, α-crystallin domain of HspB7 (AcdB7) containing residues 77-155 (UniProt Q9UBY9 77-155); experiment: as above; conditions: both partners purified
T2 construct: small heat shock protein HspB7, α-crystallin domain, residues 77-155; source: recombinant, expressed and purified as described earlier [25,34]
T2 sequence (Q9UBY9 77-155): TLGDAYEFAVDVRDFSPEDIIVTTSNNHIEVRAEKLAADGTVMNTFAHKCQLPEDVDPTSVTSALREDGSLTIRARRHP

T1 sequence (Q9UBY9 whole entry, the tested form may be a part): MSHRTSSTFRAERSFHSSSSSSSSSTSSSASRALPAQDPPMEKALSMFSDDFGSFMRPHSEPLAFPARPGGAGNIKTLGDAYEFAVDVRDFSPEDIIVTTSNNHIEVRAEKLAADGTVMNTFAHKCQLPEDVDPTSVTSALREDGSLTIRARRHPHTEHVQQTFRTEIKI

EC50 [3]	stoichiometry N [3]	EC50 [4]	stoichiometry N [4]	Binder	stoichiometry N [1]	stoichiometry N [2]
				ΔPGL mutant (p.P2643_L2645del) of the FLNC fragment containing immunoglobulin-like domains 22-24 (domain or fragment, human, UniProt Q14315 2403-2725, looked up, human filamin C (FLNC), Uniprot Q14315, residues 2403-2725, with deletion of the tripeptide 2643-PGL-2645 (mutation associated with restrictive cardiomyopathy); also called ΔPGL FLNC; c.7927_7935del; source: recombinant, expressed and purified as described earlier [23]; (ion-exchange and size-exclusion chromatography)) SLSDDARRLTVTSLQETGLKVNQPASFAVQLNGARGVIDARVHTPSGAVEECYVSELDSDKHTIRFIPHENGVHSIDVKFNGAHIPGSPFKIRVGEQSQAGDPGLVSAYGPGLEGGTTGVSSEFIVNTLNAGSGALSVTIDGPSKVQLDCRECPEGHVVTYTPMAPGNYLIAIKYGGPQHIVGSPFKAKVTGPRLSGGHSLHETSTVLVETVTKSSSSRGSSYSSIPKFSSDASKVVTRGSQAFVGQKNSFTVDCSKAGTNMMMVGVHGPKTPCEEVYVKHMGNRVYNVTYTVKEKGDYILIVKWGDESVPGSPFKVKVP	2	
~10 µM	2 HspB7/FLNC	~20 µM	1	EN/D mutant (p.Glu2472_Asn2473delinsAsp) of the FLNC fragment containing immunoglobulin-like domains 22-24 (domain or fragment, human, UniProt Q14315 2403-2725, looked up, human filamin C (FLNC), Uniprot Q14315, residues 2403-2725, with Glu2472 and Asn2473 replaced by Asp (mutation associated with restrictive cardiomyopathy); also called c.7416_7418delGAA; source: recombinant, expressed and purified as described earlier [23]; (ion-exchange and size-exclusion chromatography)) SLSDDARRLTVTSLQETGLKVNQPASFAVQLNGARGVIDARVHTPSGAVEECYVSELDSDKHTIRFIPHDGVHSIDVKFNGAHIPGSPFKIRVGEQSQAGDPGLVSAYGPGLEGGTTGVSSEFIVNTLNAGSGALSVTIDGPSKVQLDCRECPEGHVVTYTPMAPGNYLIAIKYGGPQHIVGSPFKAKVTGPRLSGGHSLHETSTVLVETVTKSSSSRGSSYSSIPKFSSDASKVVTRGPGLSQAFVGQKNSFTVDCSKAGTNMMMVGVHGPKTPCEEVYVKHMGNRVYNVTYTVKEKGDYILIVKWGDESVPGSPFKVKVP		2
~10 µM	2 HspB7/FLNC	~20 µM	1	wild-type (WT) C-terminal fragment of human filamin C (FLNC) containing immunoglobulin-like domains 22-24 (domain or fragment, UniProt Q14315 2403-2725, looked up, human filamin C (FLNC), Uniprot Q14315, immunoglobulin-like domains 22-24, amino acid residues 2403-2725; Dimer by SEC and cross-linking; also called WT FLNC; WT FLNC fragment; source: recombinant, expressed and purified as described earlier [23]; (ion-exchange and size-exclusion chromatography)) SLSDDARRLTVTSLQETGLKVNQPASFAVQLNGARGVIDARVHTPSGAVEECYVSELDSDKHTIRFIPHENGVHSIDVKFNGAHIPGSPFKIRVGEQSQAGDPGLVSAYGPGLEGGTTGVSSEFIVNTLNAGSGALSVTIDGPSKVQLDCRECPEGHVVTYTPMAPGNYLIAIKYGGPQHIVGSPFKAKVTGPRLSGGHSLHETSTVLVETVTKSSSSRGSSYSSIPKFSSDASKVVTRGPGLSQAFVGQKNSFTVDCSKAGTNMMMVGVHGPKTPCEEVYVKHMGNRVYNVTYTVKEKGDYILIVKWGDESVPGSPFKVKVP		2
